In US20250042970A1 (AURINIA PHARMACEUTICALS, published 2025):
Positions count from the first letter of the chain named. Like-named read-outs stand apart in the source and are kept apart here.

B1: FLAG-tagged cynomolgous APRIL (ligand, not shown: small tags and cut ends)
chain: KQKKQHSVLHLVPINATSKDDSDVTEVMWQPALRRGRGLQAQGYGVRIRDAGVYLLYSQVLFQDVTFTMGQVVSREGQGKQETLFRCIRSMPSHPDRAYNSCYSAGVFHLHQGDILSVIIPRARAKLNLSPHGTFLGFVKL
notes: FLAG-tagged, expressed with TPA signal peptide; also called cyAPRIL
B2: Variant BAv8-10-Ig (Fc fusion, human)
chain: AGQCSQNEYFDHLLRACIPCQVRCSSNTPPLTCQRYCNAGVTNSVKGTNAERKSSVECPPSPAPPVAGPSVFLFPPKPKDTLMISRTPEVTCVVVDVSHEDPEVQFNWYVDGVEVHNAKTKPREEQFNSTFRVVSVLTVVHQDWLNGKEYKCKVSNKGLPAPIEKTISKTKGQPREPQVYTLPPSREEMTKNQVSLTCLVKGFYPSDISVEWESNGQPENNYKTTPPMLDSDGSFFLYSKLTVDKSRWQQGNVFSCSVMHEALHNHYTQKSLSLSPGK
notes: domain: Fc; also called Variant 8-10-Ig; BAv8-10-PIg18
B3: FLAG-tagged recombinant human APRIL (ligand)
chain: AVLTQKQKKQHSVLHLVPINATSKDDSDVTEVMWQPALRRGRGLQAQGYGVRIQDAGVYLLYSQVLFQDVTFTMGQVVSREGQGRQETLFRCIRSMPSHPDRAYNSCYSAGVFHLHQGDILSVIIPRARAKLNLSPHGTFLGFVKL
notes: KINEXA ligand; also called huAPRIL
B4: Variant BAv9-5-Ig (Fc fusion, human)
chain: B2 chain with H12R, L14V, V22L
notes: domain: Fc; also called Variant 9-5-Ig; BAv9-5-PIg18

How the values were obtained:
Variant BAv8-10-Ig [1] = target: B2; assay: BIACORE SPR
Method: (§1) For human BAFF, cynomolgus monkey APRIL, and mouse APRIL measurements, mouse monoclonal antibody (IgG1) anti-FLAG M2 (Sigma Aldrich, Cat. No. F1804) was immobilized on CM3 sensor chips (GE Healthcare, Cat. No. BR-1005-41) according to the manufacturer's protocol. Antibody was diluted to 30 μg/ml in immobilization buffer (10 mM pH 5±0.20; GE Healthcare; GE Healthcare, Catalog No. BR-1003-51). […] Unreacted sites were quenched with 35 μl of 1M ethanolamine-HCl, pH 8.5 (GE Healthcare, GE Healthcare, Cat. No. BR-1000-50). This procedure typically yielded 3,000-4,000 response units (RU) of coupled antibody.
(§2) The fusion polypeptides were diluted in HBS-EP buffer and flowed over ligand-coated sensor chips. The variant BCMA-Ig and surrogate control fusion proteins were injected at three concentrations (1.5 nM, 15 nM, and 150 nM at 30 μl/min for 2 minutes per association phase) in a single binding cycle, followed by a 20 minute incubation with HBS-EP buffer containing no protein at the same flow rate. A similar protocol was followed for Z-TACI-Ig, except that the injections were at 4.5 nM, 45 nM, and 450 nM.
(§3) Using available information from the structures and published literature, several residues in BAv8-10 were targeted for substitution with conserved as well as non-conserved residues and their effect on BAFF and APRIL binding was assessed by BIACORE.

Variant 50234224-Ig = target: T1, Variant 50234224-Ig (human, UniProt P01859-1 99-326 = IgG part); assay: BIACORE SPR
T1 construct: domain: Fc; also called Parent 6

Variant 50239698-Ig = target: T2, Variant 50239698-Ig (human, UniProt P01859-1 99-326 = IgG part); assay: BIACORE SPR
T2 construct: domain: Fc; also called Parent 5

Variant 50238504R-Ig = target: T3, Variant 50238504R-Ig (human, UniProt P01859-1 99-326 = IgG part); assay: BIACORE SPR
T3 construct: domain: Fc; also called Parent 8

Variant 50240054-Ig = target: T4, Variant 50240054-Ig (human, UniProt P01859-1 99-326 = IgG part); assay: BIACORE SPR
T4 construct: domain: Fc; also called Parent 2

Variant 50237847-Ig = target: T5, Variant 50237847-Ig (human, UniProt P01859-1 99-326 = IgG part); assay: BIACORE SPR
T5 construct: domain: Fc; also called Parent 3

Variant 50238475-Ig [2] = target: T6, Variant 50238475-Ig (human, UniProt P01859-1 99-326 = IgG part); assay: BIACORE SPR
T6 construct: domain: Fc; also called Parent 9; Variant 50238475-PIg18

Variant 50237854-Ig = target: T7, Variant 50237854-Ig (human, UniProt P01859-1 99-326 = IgG part); assay: BIACORE SPR
T7 construct: domain: Fc; also called Parent 4

Variant 50239978-Ig = target: T8, Variant 50239978-Ig (human, UniProt P01859-1 99-326 = IgG part); assay: BIACORE SPR
T8 construct: domain: Fc; also called Parent 12

Variant 50238494-Ig = target: T9, Variant 50238494-Ig (human, UniProt P01859-1 99-326 = IgG part); assay: BIACORE SPR
T9 construct: domain: Fc; also called Parent 11

Variant 50239040-Ig = target: T10, Variant 50239040-Ig (human, UniProt P01859-1 99-326 = IgG part); assay: BIACORE SPR
T10 construct: domain: Fc; also called Parent 10

Variant 50238779-Ig = target: T11, Variant 50238779-Ig (human, UniProt P01859-1 99-326 = IgG part); assay: BIACORE SPR
T11 construct: domain: Fc; also called Parent 1

Variant 50237844-Ig = target: T12, Variant 50237844-Ig (human, UniProt P01859-1 99-326 = IgG part); assay: BIACORE SPR
T12 construct: domain: Fc; also called Parent 7

Variant BAv8-10-Ig [3] = target: B2; assay: BIACORE SPR; remark: listed apart in the source
Variant BAv3-10-Ig [4] = target: T13, Variant BAv3-10-Ig (human, UniProt P01859-1 99-326 = IgG part); assay: BIACORE SPR
T13 construct: domain: Fc; also called Variant 3-10-Ig; BAv3-10-PIg18
Target sequence in this assay (P01859 other isoform, or with tags, fused parts or gaps mutant limits assumed): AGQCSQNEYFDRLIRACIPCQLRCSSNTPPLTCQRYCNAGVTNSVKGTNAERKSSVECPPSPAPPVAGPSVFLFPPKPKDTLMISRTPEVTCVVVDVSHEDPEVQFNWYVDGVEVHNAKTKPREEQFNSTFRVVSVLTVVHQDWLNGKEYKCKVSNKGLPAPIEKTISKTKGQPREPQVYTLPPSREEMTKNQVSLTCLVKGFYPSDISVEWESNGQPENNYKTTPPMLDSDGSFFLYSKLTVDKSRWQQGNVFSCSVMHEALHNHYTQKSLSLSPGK

Variant BAv11-6-Ig [5] = target: T14, Variant BAv11-6-Ig (human, UniProt P01859-1 99-326 = IgG part); assay: BIACORE SPR
T14 construct: domain: Fc; also called Variant 11-6-Ig; BAv11-6-PIg18
Target sequence in this assay (P01859 other isoform, or with tags, fused parts or gaps mutant limits assumed): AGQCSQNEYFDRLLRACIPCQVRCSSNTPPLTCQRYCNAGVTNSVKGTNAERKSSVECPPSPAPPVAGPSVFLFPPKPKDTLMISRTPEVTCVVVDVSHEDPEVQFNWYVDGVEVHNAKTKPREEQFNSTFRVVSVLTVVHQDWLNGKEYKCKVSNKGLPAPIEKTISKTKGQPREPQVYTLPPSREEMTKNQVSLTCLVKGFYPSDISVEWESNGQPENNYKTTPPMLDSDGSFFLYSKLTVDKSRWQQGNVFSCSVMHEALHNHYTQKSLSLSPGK

Variant BAv1-12-Ig [6] = target: T15, Variant BAv1-12-Ig (human, UniProt P01859-1 99-326 = IgG part); assay: BIACORE SPR
T15 construct: domain: Fc; also called Variant 1-12-Ig
Target sequence in this assay (P01859 other isoform, or with tags, fused parts or gaps mutant limits assumed): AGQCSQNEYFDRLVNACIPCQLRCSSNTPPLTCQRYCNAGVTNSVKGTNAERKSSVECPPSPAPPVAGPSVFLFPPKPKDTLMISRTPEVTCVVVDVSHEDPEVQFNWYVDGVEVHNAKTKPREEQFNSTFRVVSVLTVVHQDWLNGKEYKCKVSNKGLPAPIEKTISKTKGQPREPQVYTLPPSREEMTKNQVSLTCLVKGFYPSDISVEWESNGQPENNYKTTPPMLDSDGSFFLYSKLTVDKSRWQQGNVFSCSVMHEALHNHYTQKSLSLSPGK

Variant BAv9-1-Ig [7] = target: T16, Variant BAv9-1-Ig (human, UniProt P01859-1 99-326 = IgG part); assay: BIACORE SPR
T16 construct: domain: Fc; also called Variant 9-1-Ig; BAv9-1-pIg18
Target sequence in this assay (P01859 other isoform, or with tags, fused parts or gaps mutant limits assumed): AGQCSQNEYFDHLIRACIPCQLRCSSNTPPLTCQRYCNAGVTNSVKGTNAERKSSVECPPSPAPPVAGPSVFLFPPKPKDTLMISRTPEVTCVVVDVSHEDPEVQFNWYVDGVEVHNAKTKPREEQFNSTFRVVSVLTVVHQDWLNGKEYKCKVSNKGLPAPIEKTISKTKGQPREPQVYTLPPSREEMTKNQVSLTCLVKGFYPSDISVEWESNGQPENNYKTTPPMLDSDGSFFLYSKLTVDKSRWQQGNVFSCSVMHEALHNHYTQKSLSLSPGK

Variant 50238475-Ig [8] = target: T6, Variant 50238475-Ig; assay: BIACORE SPR; remark: listed apart in the source
BAv66-Ig = target: T17, BAv66-Ig (human, UniProt P01859-1 99-326 = IgG part); assay: BIACORE SPR
T17 construct: domain: Fc; also called Variant BAv66-Ig

Variant BAv9-5-Ig [9] = target: B4; assay: BIACORE SPR
Target sequence in this assay (P01859 other isoform, or with tags, fused parts or gaps mutant limits assumed): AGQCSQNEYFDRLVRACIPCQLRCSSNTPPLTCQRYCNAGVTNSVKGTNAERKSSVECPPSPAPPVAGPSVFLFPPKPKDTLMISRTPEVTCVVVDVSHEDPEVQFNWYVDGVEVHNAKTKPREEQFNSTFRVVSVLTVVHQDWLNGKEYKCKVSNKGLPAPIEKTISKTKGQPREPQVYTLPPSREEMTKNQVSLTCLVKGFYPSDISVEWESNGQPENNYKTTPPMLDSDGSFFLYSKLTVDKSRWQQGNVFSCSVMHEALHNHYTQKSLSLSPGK

Variant BAv8-9-Ig [10] = target: T18, Variant BAv8-9-Ig (human, UniProt P01859-1 99-326 = IgG part); assay: BIACORE SPR
T18 construct: domain: Fc; also called Variant 8-9-Ig; BAv8-9-PIg18
Target sequence in this assay (P01859 other isoform, or with tags, fused parts or gaps mutant limits assumed): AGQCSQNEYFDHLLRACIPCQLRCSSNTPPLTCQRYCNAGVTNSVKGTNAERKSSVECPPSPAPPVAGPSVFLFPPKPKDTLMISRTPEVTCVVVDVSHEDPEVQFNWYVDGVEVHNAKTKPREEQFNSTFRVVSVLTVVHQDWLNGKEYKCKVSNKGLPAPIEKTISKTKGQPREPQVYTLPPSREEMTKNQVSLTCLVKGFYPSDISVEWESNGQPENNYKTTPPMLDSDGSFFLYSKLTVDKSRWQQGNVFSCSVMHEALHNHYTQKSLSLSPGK

FLAG-tagged human BAFF [11] = target: T19, FLAG-tagged human BAFF (human, UniProt Q9Y275 134-285, limits assumed); assay: BIACORE SPR
T19 construct: used in BIACORE (Ex. 9) and KINEXA (Ex. 11); also called huBAFF
Method: as §1, §2, §3

[12] = target: B1; assay: BIACORE SPR
Method: as §1, §2, §3

[13] = target: B3; assay: KinExA
FLAG-tagged human BAFF [14] = target: T19, FLAG-tagged human BAFF; assay: KinExA
[15] = target: B3; assay: KinExA; remark: listed apart in the source
FLAG-tagged human BAFF [16] = target: T19, FLAG-tagged human BAFF; assay: KinExA; remark: listed apart in the source
FLAG-tagged human BAFF [17] = target: T19, FLAG-tagged human BAFF; assay: BIACORE SPR; remark: listed apart in the source
[18] = target: B1; assay: BIACORE SPR; remark: listed apart in the source
Variant BAv8-10-Ig [19] = target: B2; assay: KinExA
Variant BAv3-10-Ig [20] = target: T13, Variant BAv3-10-Ig; assay: KinExA
Variant BAv11-6-Ig [21] = target: T14, Variant BAv11-6-Ig; assay: KinExA
Variant BAv1-12-Ig [22] = target: T15, Variant BAv1-12-Ig; assay: KinExA
Variant BAv9-1-Ig [23] = target: T16, Variant BAv9-1-Ig; assay: KinExA
Variant 9-3-Ig = target: T20, Variant 9-3-Ig (human, UniProt P01859-1 99-326 = IgG part); assay: KinExA
T20 construct: domain: Fc; also called BAv9-3

Variant BAv9-5-Ig [24] = target: B4; assay: KinExA
Variant BAv8-9-Ig [25] = target: T18, Variant BAv8-9-Ig; assay: KinExA
Variant BAv9-1-Ig [26] = target: T16, Variant BAv9-1-Ig; assay: KinExA; remark: listed apart in the source
membrane-huBAFF = membrane-huBAFF (human, UniProt Q9Y275 1-285); assay: cell-based or functional assay

T6 sequence (P01859 other isoform, or with tags, fused parts or gaps mutant limits assumed): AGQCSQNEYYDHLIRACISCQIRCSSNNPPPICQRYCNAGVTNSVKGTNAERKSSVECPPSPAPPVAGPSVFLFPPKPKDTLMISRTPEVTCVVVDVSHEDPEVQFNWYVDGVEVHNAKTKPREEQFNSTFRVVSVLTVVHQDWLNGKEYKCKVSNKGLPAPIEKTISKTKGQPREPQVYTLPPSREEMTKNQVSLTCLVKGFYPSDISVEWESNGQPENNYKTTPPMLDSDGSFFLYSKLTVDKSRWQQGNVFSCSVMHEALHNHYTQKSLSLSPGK
T10 sequence (P01859 other isoform, or with tags, fused parts or gaps mutant limits assumed): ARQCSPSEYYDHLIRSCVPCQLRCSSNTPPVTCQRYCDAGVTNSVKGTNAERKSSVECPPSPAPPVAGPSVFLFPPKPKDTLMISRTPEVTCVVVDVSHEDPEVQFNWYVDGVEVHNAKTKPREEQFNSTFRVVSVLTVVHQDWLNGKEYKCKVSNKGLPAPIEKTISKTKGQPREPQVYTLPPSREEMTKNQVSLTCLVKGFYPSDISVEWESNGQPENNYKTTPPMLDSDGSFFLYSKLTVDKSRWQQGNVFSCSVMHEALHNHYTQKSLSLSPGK
T11 sequence (P01859 other isoform, or with tags, fused parts or gaps mutant limits assumed): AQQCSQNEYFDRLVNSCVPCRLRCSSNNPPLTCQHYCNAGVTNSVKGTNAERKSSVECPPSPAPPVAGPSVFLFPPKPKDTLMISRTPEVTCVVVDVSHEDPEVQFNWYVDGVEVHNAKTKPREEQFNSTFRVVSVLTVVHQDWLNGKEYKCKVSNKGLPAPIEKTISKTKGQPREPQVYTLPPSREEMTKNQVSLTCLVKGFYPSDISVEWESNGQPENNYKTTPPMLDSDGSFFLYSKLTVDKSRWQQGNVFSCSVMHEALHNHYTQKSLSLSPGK
T1 sequence (P01859 other isoform, or with tags, fused parts or gaps mutant limits assumed): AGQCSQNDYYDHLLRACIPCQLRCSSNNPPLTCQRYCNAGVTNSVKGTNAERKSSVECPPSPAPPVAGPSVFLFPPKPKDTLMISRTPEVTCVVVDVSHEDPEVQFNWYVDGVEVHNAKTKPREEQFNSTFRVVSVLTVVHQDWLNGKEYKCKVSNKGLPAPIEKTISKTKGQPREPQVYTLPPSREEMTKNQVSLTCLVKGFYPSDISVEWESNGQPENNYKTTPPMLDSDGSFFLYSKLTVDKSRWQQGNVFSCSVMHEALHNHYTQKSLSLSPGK
T7 sequence (P01859 other isoform, or with tags, fused parts or gaps mutant limits assumed): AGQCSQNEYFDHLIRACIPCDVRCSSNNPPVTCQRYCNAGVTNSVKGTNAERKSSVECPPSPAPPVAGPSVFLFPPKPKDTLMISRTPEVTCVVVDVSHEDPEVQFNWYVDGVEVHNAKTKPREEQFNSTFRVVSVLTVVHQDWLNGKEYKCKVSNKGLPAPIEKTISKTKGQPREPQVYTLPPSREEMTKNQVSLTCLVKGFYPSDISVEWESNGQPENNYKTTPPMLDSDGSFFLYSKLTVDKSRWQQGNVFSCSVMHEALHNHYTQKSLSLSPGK
T8 sequence (P01859 other isoform, or with tags, fused parts or gaps mutant limits assumed): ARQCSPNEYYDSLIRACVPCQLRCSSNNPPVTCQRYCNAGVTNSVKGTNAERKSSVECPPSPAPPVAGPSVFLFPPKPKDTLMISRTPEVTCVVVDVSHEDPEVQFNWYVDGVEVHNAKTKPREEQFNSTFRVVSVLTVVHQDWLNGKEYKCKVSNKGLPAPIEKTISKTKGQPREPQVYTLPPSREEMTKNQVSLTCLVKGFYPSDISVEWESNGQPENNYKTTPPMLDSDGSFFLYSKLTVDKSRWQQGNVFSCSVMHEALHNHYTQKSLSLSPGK
T4 sequence (P01859 other isoform, or with tags, fused parts or gaps mutant limits assumed): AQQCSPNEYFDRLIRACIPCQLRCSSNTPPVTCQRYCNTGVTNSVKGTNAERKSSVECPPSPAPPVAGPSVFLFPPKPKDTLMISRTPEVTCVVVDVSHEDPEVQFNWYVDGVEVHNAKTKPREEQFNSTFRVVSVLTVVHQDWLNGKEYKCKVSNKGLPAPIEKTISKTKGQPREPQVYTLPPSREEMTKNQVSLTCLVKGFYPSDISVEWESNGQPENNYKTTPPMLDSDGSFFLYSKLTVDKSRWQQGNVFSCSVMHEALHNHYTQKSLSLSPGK
T17 sequence (P01859 other isoform, or with tags, fused parts or gaps limits assumed): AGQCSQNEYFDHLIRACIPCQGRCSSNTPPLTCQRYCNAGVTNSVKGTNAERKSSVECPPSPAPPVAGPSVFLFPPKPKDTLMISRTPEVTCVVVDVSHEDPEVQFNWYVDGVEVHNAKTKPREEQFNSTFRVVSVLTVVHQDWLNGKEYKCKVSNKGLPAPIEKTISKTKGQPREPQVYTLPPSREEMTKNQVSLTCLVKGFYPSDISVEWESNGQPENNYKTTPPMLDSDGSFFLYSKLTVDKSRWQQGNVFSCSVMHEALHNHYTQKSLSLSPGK
T2 sequence (P01859 other isoform, or with tags, fused parts or gaps mutant limits assumed): as the sequence (P01859 other isoform, or with tags, fused parts or gaps limits assumed) above, with G2R, F10Y, H12R, I14L, A16S, I18V, Q21H, G22V, T28N, L31V counted along it
T9 sequence (P01859 other isoform, or with tags, fused parts or gaps mutant limits assumed): as the sequence (P01859 other isoform, or with tags, fused parts or gaps limits assumed) above, with N7S, F10Y, H12R, R15H, I18V, G22L, T28N, L31A counted along it
T12 sequence (P01859 other isoform, or with tags, fused parts or gaps mutant limits assumed): as the sequence (P01859 other isoform, or with tags, fused parts or gaps limits assumed) above, with N7S, F10Y, H12R, G22L, T28N, L31V, T32I counted along it

Binder: B1
- Kd (Variant BAv8-10-Ig [1]): 76 pM
- Kd (Variant 50234224-Ig): 39 pM
- Kd (Variant 50239698-Ig): 17 pM
- Kd (Variant 50238504R-Ig): 72 pM
- Kd (Variant 50240054-Ig): 23 pM
- Kd (Variant 50237847-Ig): 37 pM
- Kd (Variant 50238475-Ig [2]): 42 pM
- Kd (Variant 50237854-Ig): 59 pM
- Kd (Variant 50239978-Ig): 24 pM
- Kd (Variant 50238494-Ig): 12 pM
- Kd (Variant 50239040-Ig): 54 pM
- Kd (Variant 50238779-Ig): 28 pM
- Kd (Variant 50237844-Ig): 28 pM
- Kd (Variant BAv8-10-Ig [3]): 53.9 pM
- Kd (Variant BAv3-10-Ig [4]): 13.9 pM
- Kd (Variant BAv11-6-Ig [5]): 24.4 pM
- Kd (Variant BAv1-12-Ig [6]): 10.1 pM
- Kd (Variant BAv9-1-Ig [7]): 21.4 pM
- Kd (Variant 50238475-Ig [8]): 78.9 pM
- Kd (BAv66-Ig): 62600 pM
- Kd (Variant BAv9-5-Ig [9]): 28.4 pM
- Kd (Variant BAv8-9-Ig [10]): 22.6 pM

Binder: B2
- fold improvement over control (FLAG-tagged human BAFF [11]): 13.1 fold
- fold improvement over control [12]: 0.75 fold
- Selectivity for huAPRIL (KD BAFF/KD APRIL) [13]: 0.3 ratio
- Selectivity for huBAFF (KD APRIL/KD BAFF) (FLAG-tagged human BAFF [14]): 3.33 ratio
- fold improvement over control [15]: 0.05 fold
- fold improvement over control (FLAG-tagged human BAFF [16]): 233 fold
- fold improvement KD vs control (FLAG-tagged human BAFF [17]): 5.3 fold
- fold improvement KD vs control [18]: 0.3 fold

Binder: B3
- Kd (Variant BAv8-10-Ig [19]): 3.23 pM
- Kd (Variant BAv3-10-Ig [20]): 0.337 pM
- Kd (Variant BAv11-6-Ig [21]): 1.63 pM
- Kd (Variant BAv1-12-Ig [22]): 0.275 pM
- Kd (Variant BAv9-1-Ig [23]): 0.198 pM
- Kd (Variant 9-3-Ig): 18.9 pM
- Kd (Variant BAv9-5-Ig [24]): 1.64 pM
- Kd (Variant BAv8-9-Ig [25]): 0.0224 pM
- Kd (Variant BAv9-1-Ig [26]): 0.198 pM

Binder: B4
- Selectivity for huAPRIL (KD BAFF/KD APRIL) [13]: 0.39 ratio
- Selectivity for huBAFF (KD APRIL/KD BAFF) (FLAG-tagged human BAFF [14]): 2.59 ratio
- IC50 (read off the curve) (NFkappaB luciferase signal of HEK293-huBCMA reporter cells stimulated with HEK-293 cells expressing membrane huBAFF) (membrane-huBAFF): ~500 pM
- fold improvement over control [15]: 0.1 fold
- fold improvement over control (FLAG-tagged human BAFF [16]): 358 fold
- fold improvement KD vs control (FLAG-tagged human BAFF [17]): 10.9 fold
- fold improvement KD vs control [18]: 0.5 fold
